In patent US20240417446A1 (US Dept. of Health and Human Services, published 2024):

Experiments:
[1] = molecular target: T1, SARS-CoV-2 spike trimer (40589-V08H4) (SARS-CoV-2, UniProt P0DTC2 14-1213); experiment: ELISA, A450, nanobody at 10ug/mL, Spike Trimer coated at 2 ug/mL
T1 construct: extracellular domain

[2] = molecular target: SARS-CoV-2 Alpha variant spike protein on pseudovirus (SARS-CoV-2, UniProt P0DTC2 14-1273); experiment: cell-based or functional assay
[3] = molecular target: SARS-CoV-2 Gamma variant spike protein on pseudovirus (SARS-CoV-2, UniProt P0DTC2 14-1273); experiment: cell-based or functional assay
[4] = molecular target: SARS-CoV-2 Lambda variant spike protein on pseudovirus (SARS-CoV-2, UniProt P0DTC2 14-1273); experiment: cell-based or functional assay
[5] = molecular target: SARS-CoV-2 Omicron BA.1 variant spike protein on pseudovirus (SARS-CoV-2); experiment: cell-based or functional assay
[6] = molecular target: SARS-CoV-2 Omicron BA.2 variant spike protein on pseudovirus (SARS-CoV-2); experiment: cell-based or functional assay
[7] = molecular target: SARS-CoV-2 Omicron BA.4/BA.5 variant spike protein on pseudovirus (SARS-CoV-2); experiment: cell-based or functional assay

B1: NCI-CoV-CG2G2 (VHH)
VHH: AVQLVESGGGSVPPGGSLTLSCTVSDNIFRTYAVGWFRQAPEKRCQWIATLNADESTEYNVAVTGRFTISRDNSGRSVYLQMDNLNSEDTAIYYCASLARKWSCHDSWGRGTQVTVSS
In the case of B1, the “ELISA (A450) at 10ug/mL” value [1] is reported as 2.7.

B2: NCI-CoV-CLA2 (VHH)
VHH: QVQLVESGGGSVQPGGSLRLSCAVSGYTSSSYCFGWFRQAPGKDREGIIAMEPGNTYTAGAVKGRFTISRDNAKNMVYLQMNSLKPDDTAMYYCAASPYPGTWLNPDLFDTWGQGTQVTVSS
For B2, the “ELISA (A450) at 10ug/mL” value [1] was 0.66.

B3: NCI-CoV-CGF10 (VHH)
VHH: AVQLVESGGGLVQPGGSLRLSCAASGFTFSSYGMHWVRQAPGKGLERVAGINWDGSNSYYTETVKGRFTISRDNAKNTAYLQMNSLKPEDTAMYYCRTLILDSDCDPGSTYRYAWGQGTQVTVSS
B3 was tested, and the “ELISA (A450) at 10ug/mL” value [1] was 1.2.

B4: NCI-CoV-CGH3 (VHH)
VHH: AVQLVESGGGLVQPGGSLRLSCAASGFTFSSYAMGWVRQAPGKGLEWISAINSGGDIRYYADSVKGRFTISRDNAKNTLYLQMNSLKPEDTAVYYCATDDEILSYGLGTSFDYWGQGTQVTVSS
In the case of B4, the “ELISA (A450) at 10ug/mL” value [1] is reported as 0.14.

B5: NCI-CoV-S4A9 (VNAR)
VNAR: ARVDQTPRSVTKETGESLTINCVLRDASYALGSTCWYRKKSGSTNEESISKGGRYVETVNSGSKSFSLRINDLTVEDGGTYRCGVQSRWGAVPKLCSNYAACGDGTAVTVN
With B5 the “ELISA (A450) at 10ug/mL” value [1] was 1.43.

B6: NCI-CoV-S2A9 (VNAR)
VNAR: ARVDQTPRSVTKETGESLTINCVLRDASYALGRTCWYRKKSGSTNEESISKGGRYVETVNSGSKSFSLRINDLTVEDGGTYRCGVSTPWSCDYGPLCFYAACGDGTVVTVN
In the case of B6, the “IC50 for neutralizing pseudovirus” value [2] is reported as 1820 nM, the “IC50 for neutralizing pseudovirus” value [3] is reported as 1800 nM and the “IC50 for neutralizing pseudovirus” value [4] is reported as 4570 nM. For the same binder, the “IC50 for neutralizing pseudovirus” value [5] was 2250 nM, the “IC50 for neutralizing pseudovirus” value [6] was 2250 nM and the “IC50 for neutralizing pseudovirus” value [7] was 3730 nM. For the same binder, the “ELISA (A450) at 10ug/mL” value [1] was 0.53.

B7: NCI-CoV-S3A10 (VNAR)
VNAR: ARVDQTPRSVTKETGESLTINCVLRDASYALGSTCWYRKKSGSTNEESISKGGRYVETVNSGSKSFSLRINDLTVEDGGTYRCGRIQNTKAVLLPCVYAACGDGTVVTVN
With B7 the “ELISA (A450) at 10ug/mL” value [1] was 1.34.

B8: NCI-CoV-S2G8 (VNAR)
VNAR: ARVDQTPQTITKETGESLTINCVLRDSNCPLSNTYWYRKKSGSTNEESISKGGRYVETVNSGSKSFSLRINDLTVEDSGTYRCKVRTHWSICWEMGLEPNYDVYGGGTVVTVN
B8 was tested, and the “ELISA (A450) at 10ug/mL” value [1] was 0.61.

B9: NCI-CoV-CL3H4 (VHH)
VHH: DVQLVESGGGAVKPGGSLTLTCTVQEGSRNCVGWFRQGSGKDRQAVAMINGNGGTTNYDDRVKGRFQISRDGSLVHLRMNDVKLGDTDIYYCRQGQTYDCWGGTWTDSGWGQGTQVTVSS
In the case of B9, the “ELISA (A450) at 10ug/mL” value [1] is reported as 0.3.
